# Reference: patent US20110105397A1, “METHOD FOR TREATING HEART FAILURE WITH STRESSCOPIN-LIKE PEPTIDES” (priority 2009, published 2011)
# Where no end group is shown, it is not given here. The star is where a group is joined. Succinimide(1-Et,3-yl) = CCN1C(=O)CC(*)C1=O
# T1: human corticotrophin releasing hormone receptor type 2 (CRHR2) (human, UniProt Q13324 1-411)
# T1 sequence (looked up): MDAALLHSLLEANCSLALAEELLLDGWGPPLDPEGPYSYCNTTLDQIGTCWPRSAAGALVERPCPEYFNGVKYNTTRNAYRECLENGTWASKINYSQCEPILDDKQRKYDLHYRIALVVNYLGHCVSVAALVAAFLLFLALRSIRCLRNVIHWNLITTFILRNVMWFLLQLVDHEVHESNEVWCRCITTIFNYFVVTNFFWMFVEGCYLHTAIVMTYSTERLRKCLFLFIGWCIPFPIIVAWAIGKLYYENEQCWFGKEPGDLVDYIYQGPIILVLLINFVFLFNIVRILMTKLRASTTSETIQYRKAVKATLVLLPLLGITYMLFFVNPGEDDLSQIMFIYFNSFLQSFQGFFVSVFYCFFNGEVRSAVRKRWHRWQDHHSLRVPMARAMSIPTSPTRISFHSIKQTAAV
# B1: Pegylated Cys-variant stresscopin-like peptide, NES-PEG MW40000, SEQ ID NO: 100 (peptide)
# peptide: TKFTLSLDVPTNIMNLLFNIAKAKNLRCQAAANAHLMAQI
# modifications: NES-PEG MW40000 on Cys 28; C-terminal amide (-NH2)
# B2: Pegylated Cys-variant stresscopin-like peptide, NES-PEG MW80000 & BRANCHED, SEQ ID NO: 101 (peptide)
# peptide: B1 peptide
# modifications: NES-PEG MW80000 & BRANCHED on Cys 28; C-terminal amide (-NH2)
# B3: Cys-variant of stresscopin peptide with N-Ethylsuccinimide (NES) reactive group SEQ ID NO: 46 (peptide)
# peptide: TKFTLSLDVPTNIMNLLFNIAKAKNLRAQAC(Succinimide(1-Et,3-yl))ANAHLMAQI-NH2
# modifications: N-terminus assumed
# SMILES: CC[C@H](C)[C@H](NC(=O)[C@H](CCC(N)=O)NC(=O)[C@H](C)NC(=O)[C@H](CCSC)NC(=O)[C@H](CC(C)C)NC(=O)[C@H](Cc1c[nH]cn1)NC(=O)[C@H](C)NC(=O)[C@H](CC(N)=O)NC(=O)[C@H](C)NC(=O)[C@H](CSC1CC(=O)N(CC)C1=O)NC(=O)[C@H](C)NC(=O)[C@H](CCC(N)=O)NC(=O)[C@H](C)NC(=O)[C@H](CCCNC(=N)N)NC(=O)[C@H](CC(C)C)NC(=O)[C@H](CC(N)=O)NC(=O)[C@H](CCCCN)NC(=O)[C@H](C)NC(=O)[C@H](CCCCN)NC(=O)[C@H](C)NC(=O)[C@@H](NC(=O)[C@H](CC(N)=O)NC(=O)[C@H](Cc1ccccc1)NC(=O)[C@H](CC(C)C)NC(=O)[C@H](CC(C)C)NC(=O)[C@H](CC(N)=O)NC(=O)[C@H](CCSC)NC(=O)[C@@H](NC(=O)[C@H](CC(N)=O)NC(=O)[C@@H](NC(=O)[C@@H]1CCCN1C(=O)[C@@H](NC(=O)[C@H](CC(=O)O)NC(=O)[C@H](CC(C)C)NC(=O)[C@H](CO)NC(=O)[C@H](CC(C)C)NC(=O)[C@@H](NC(=O)[C@H](Cc1ccccc1)NC(=O)[C@H](CCCCN)NC(=O)[C@@H](N)[C@@H](C)O)[C@@H](C)O)C(C)C)[C@@H](C)O)[C@@H](C)CC)[C@@H](C)CC)C(N)=O
# B4: Cys-variant of stresscopin peptide with N-Ethylsuccinimide (NES) reactive group SEQ ID NO: 48 (peptide)
# peptide: TKFTLSLDVPTNIMNLLFNIAKAKNC(Succinimide(1-Et,3-yl))RAQAAANAHLMAQI-NH2
# modifications: N-terminus assumed
# SMILES: CC[C@H](C)[C@H](NC(=O)[C@H](CCC(N)=O)NC(=O)[C@H](C)NC(=O)[C@H](CCSC)NC(=O)[C@H](CC(C)C)NC(=O)[C@H](Cc1c[nH]cn1)NC(=O)[C@H](C)NC(=O)[C@H](CC(N)=O)NC(=O)[C@H](C)NC(=O)[C@H](C)NC(=O)[C@H](C)NC(=O)[C@H](CCC(N)=O)NC(=O)[C@H](C)NC(=O)[C@H](CCCNC(=N)N)NC(=O)[C@H](CSC1CC(=O)N(CC)C1=O)NC(=O)[C@H](CC(N)=O)NC(=O)[C@H](CCCCN)NC(=O)[C@H](C)NC(=O)[C@H](CCCCN)NC(=O)[C@H](C)NC(=O)[C@@H](NC(=O)[C@H](CC(N)=O)NC(=O)[C@H](Cc1ccccc1)NC(=O)[C@H](CC(C)C)NC(=O)[C@H](CC(C)C)NC(=O)[C@H](CC(N)=O)NC(=O)[C@H](CCSC)NC(=O)[C@@H](NC(=O)[C@H](CC(N)=O)NC(=O)[C@@H](NC(=O)[C@@H]1CCCN1C(=O)[C@@H](NC(=O)[C@H](CC(=O)O)NC(=O)[C@H](CC(C)C)NC(=O)[C@H](CO)NC(=O)[C@H](CC(C)C)NC(=O)[C@@H](NC(=O)[C@H](Cc1ccccc1)NC(=O)[C@H](CCCCN)NC(=O)[C@@H](N)[C@@H](C)O)[C@@H](C)O)C(C)C)[C@@H](C)O)[C@@H](C)CC)[C@@H](C)CC)C(N)=O
# B5: Cys-variant of stresscopin peptide with N-Ethylsuccinimide (NES) reactive group SEQ ID NO: 47 (peptide)
# peptide: TKFTLSLDVPTNIMNLLFNIAKAKNLRC(Succinimide(1-Et,3-yl))QAAANAHLMAQI-NH2
# modifications: N-terminus assumed
# SMILES: CC[C@H](C)[C@H](NC(=O)[C@H](CCC(N)=O)NC(=O)[C@H](C)NC(=O)[C@H](CCSC)NC(=O)[C@H](CC(C)C)NC(=O)[C@H](Cc1c[nH]cn1)NC(=O)[C@H](C)NC(=O)[C@H](CC(N)=O)NC(=O)[C@H](C)NC(=O)[C@H](C)NC(=O)[C@H](C)NC(=O)[C@H](CCC(N)=O)NC(=O)[C@H](CSC1CC(=O)N(CC)C1=O)NC(=O)[C@H](CCCNC(=N)N)NC(=O)[C@H](CC(C)C)NC(=O)[C@H](CC(N)=O)NC(=O)[C@H](CCCCN)NC(=O)[C@H](C)NC(=O)[C@H](CCCCN)NC(=O)[C@H](C)NC(=O)[C@@H](NC(=O)[C@H](CC(N)=O)NC(=O)[C@H](Cc1ccccc1)NC(=O)[C@H](CC(C)C)NC(=O)[C@H](CC(C)C)NC(=O)[C@H](CC(N)=O)NC(=O)[C@H](CCSC)NC(=O)[C@@H](NC(=O)[C@H](CC(N)=O)NC(=O)[C@@H](NC(=O)[C@@H]1CCCN1C(=O)[C@@H](NC(=O)[C@H](CC(=O)O)NC(=O)[C@H](CC(C)C)NC(=O)[C@H](CO)NC(=O)[C@H](CC(C)C)NC(=O)[C@@H](NC(=O)[C@H](Cc1ccccc1)NC(=O)[C@H](CCCCN)NC(=O)[C@@H](N)[C@@H](C)O)[C@@H](C)O)C(C)C)[C@@H](C)O)[C@@H](C)CC)[C@@H](C)CC)C(N)=O
# B6: Cys-variant of stresscopin peptide with N-Ethylsuccinimide (NES) reactive group SEQ ID NO: 51 (peptide)
# peptide: TKFTLSLDVPTNIMNLLFNC(Succinimide(1-Et,3-yl))AKAKNLRAQAAANAHLMAQI-NH2
# modifications: N-terminus assumed
# SMILES: CC[C@H](C)[C@H](NC(=O)[C@H](CCC(N)=O)NC(=O)[C@H](C)NC(=O)[C@H](CCSC)NC(=O)[C@H](CC(C)C)NC(=O)[C@H](Cc1c[nH]cn1)NC(=O)[C@H](C)NC(=O)[C@H](CC(N)=O)NC(=O)[C@H](C)NC(=O)[C@H](C)NC(=O)[C@H](C)NC(=O)[C@H](CCC(N)=O)NC(=O)[C@H](C)NC(=O)[C@H](CCCNC(=N)N)NC(=O)[C@H](CC(C)C)NC(=O)[C@H](CC(N)=O)NC(=O)[C@H](CCCCN)NC(=O)[C@H](C)NC(=O)[C@H](CCCCN)NC(=O)[C@H](C)NC(=O)[C@H](CSC1CC(=O)N(CC)C1=O)NC(=O)[C@H](CC(N)=O)NC(=O)[C@H](Cc1ccccc1)NC(=O)[C@H](CC(C)C)NC(=O)[C@H](CC(C)C)NC(=O)[C@H](CC(N)=O)NC(=O)[C@H](CCSC)NC(=O)[C@@H](NC(=O)[C@H](CC(N)=O)NC(=O)[C@@H](NC(=O)[C@@H]1CCCN1C(=O)[C@@H](NC(=O)[C@H](CC(=O)O)NC(=O)[C@H](CC(C)C)NC(=O)[C@H](CO)NC(=O)[C@H](CC(C)C)NC(=O)[C@@H](NC(=O)[C@H](Cc1ccccc1)NC(=O)[C@H](CCCCN)NC(=O)[C@@H](N)[C@@H](C)O)[C@@H](C)O)C(C)C)[C@@H](C)O)[C@@H](C)CC)C(N)=O
# B7: Cys-variant of stresscopin peptide with N-Ethylsuccinimide (NES) reactive group SEQ ID NO: 49 (peptide)
# peptide: TKFTLSLDVPTNIMNLLFNIAKAKC(Succinimide(1-Et,3-yl))LRAQAAANAHLMAQI-NH2
# modifications: N-terminus assumed
# SMILES: CC[C@H](C)[C@H](NC(=O)[C@H](CCC(N)=O)NC(=O)[C@H](C)NC(=O)[C@H](CCSC)NC(=O)[C@H](CC(C)C)NC(=O)[C@H](Cc1c[nH]cn1)NC(=O)[C@H](C)NC(=O)[C@H](CC(N)=O)NC(=O)[C@H](C)NC(=O)[C@H](C)NC(=O)[C@H](C)NC(=O)[C@H](CCC(N)=O)NC(=O)[C@H](C)NC(=O)[C@H](CCCNC(=N)N)NC(=O)[C@H](CC(C)C)NC(=O)[C@H](CSC1CC(=O)N(CC)C1=O)NC(=O)[C@H](CCCCN)NC(=O)[C@H](C)NC(=O)[C@H](CCCCN)NC(=O)[C@H](C)NC(=O)[C@@H](NC(=O)[C@H](CC(N)=O)NC(=O)[C@H](Cc1ccccc1)NC(=O)[C@H](CC(C)C)NC(=O)[C@H](CC(C)C)NC(=O)[C@H](CC(N)=O)NC(=O)[C@H](CCSC)NC(=O)[C@@H](NC(=O)[C@H](CC(N)=O)NC(=O)[C@@H](NC(=O)[C@@H]1CCCN1C(=O)[C@@H](NC(=O)[C@H](CC(=O)O)NC(=O)[C@H](CC(C)C)NC(=O)[C@H](CO)NC(=O)[C@H](CC(C)C)NC(=O)[C@@H](NC(=O)[C@H](Cc1ccccc1)NC(=O)[C@H](CCCCN)NC(=O)[C@@H](N)[C@@H](C)O)[C@@H](C)O)C(C)C)[C@@H](C)O)[C@@H](C)CC)[C@@H](C)CC)C(N)=O
# B8: Cys-variant of stresscopin peptide with N-Ethylsuccinimide (NES) reactive group SEQ ID NO: 50 (peptide)
# peptide: TKFTLSLDVPTNIMNLLFNIAKAC(Succinimide(1-Et,3-yl))NLRAQAAANAHLMAQI-NH2
# modifications: N-terminus assumed
# SMILES: CC[C@H](C)[C@H](NC(=O)[C@H](CCC(N)=O)NC(=O)[C@H](C)NC(=O)[C@H](CCSC)NC(=O)[C@H](CC(C)C)NC(=O)[C@H](Cc1c[nH]cn1)NC(=O)[C@H](C)NC(=O)[C@H](CC(N)=O)NC(=O)[C@H](C)NC(=O)[C@H](C)NC(=O)[C@H](C)NC(=O)[C@H](CCC(N)=O)NC(=O)[C@H](C)NC(=O)[C@H](CCCNC(=N)N)NC(=O)[C@H](CC(C)C)NC(=O)[C@H](CC(N)=O)NC(=O)[C@H](CSC1CC(=O)N(CC)C1=O)NC(=O)[C@H](C)NC(=O)[C@H](CCCCN)NC(=O)[C@H](C)NC(=O)[C@@H](NC(=O)[C@H](CC(N)=O)NC(=O)[C@H](Cc1ccccc1)NC(=O)[C@H](CC(C)C)NC(=O)[C@H](CC(C)C)NC(=O)[C@H](CC(N)=O)NC(=O)[C@H](CCSC)NC(=O)[C@@H](NC(=O)[C@H](CC(N)=O)NC(=O)[C@@H](NC(=O)[C@@H]1CCCN1C(=O)[C@@H](NC(=O)[C@H](CC(=O)O)NC(=O)[C@H](CC(C)C)NC(=O)[C@H](CO)NC(=O)[C@H](CC(C)C)NC(=O)[C@@H](NC(=O)[C@H](Cc1ccccc1)NC(=O)[C@H](CCCCN)NC(=O)[C@@H](N)[C@@H](C)O)[C@@H](C)O)C(C)C)[C@@H](C)O)[C@@H](C)CC)[C@@H](C)CC)C(N)=O
# Target: T1, human corticotrophin releasing hormone …
# Experiment: cell-based or functional assay
Log DR [log10],pA50,Binder
1.1,8.64 -log10(M),B1
1.9,7.84 -log10(M),B2
0.04,9.43 -log10(M),B3
0.03,9.44 -log10(M),B4
-0.03,9.5 -log10(M),B5
0.68,8.79 -log10(M),B6
0.11,9.36 -log10(M),B7
-0.01,9.48 -log10(M),B8
